Data published in the supplement of paper PMC6757056.
± gives the standard deviation of the averaged measurements.

B1: library; a variant is named by its letters at N, in order (parent)
chain: GCUGUCACCGGUGUAUUACCCUAGUGGUCGACCGGUCUGAUGAGUCUNNNNNNAGACGAAACAGC

Key:
hypoxanthine [1] = variants of: B1; experiment: normalized RNA/DNA level with ligand (relative to sTRSVctl = 100) (log10 (% of sTRSVctl)); ligand: hypoxanthine (xanthine aptamer); higher = less ribozyme self-cleavage, higher mRNA level; conditions: ligand concentration (+) RNA-Seq: 5 mM, HEK293T, reporter: mCherry (pCS4076), ligand present: yes
Procedure, shortened: (§1)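 Ribozyme switch library plasmids linked to reporters were introduced into HEK293T cells at 4 µg per 6-well well, with ligand, if any, added 1 h before. Total RNA was extracted with EDTA 72 h later, reverse-transcribed, amplified, barcoded and sequenced. RNA level was computed from RNA over DNA reads relative to a spiked-in non-cleaving sequence or the top sequences, then scaled and log-transformed. The top set was 25 sequences, values were ×100 and log10, and the cutoff was ≥100 DNA reads.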

hypoxanthine [2] = variants of: B1; experiment: normalized RNA/DNA level without ligand (relative to sTRSVctl = 100) (log10 (% of sTRSVctl)); ligand: hypoxanthine (xanthine aptamer); higher = less ribozyme self-cleavage, higher mRNA level; conditions: HEK293T, reporter: mCherry (pCS4076), ligand present: no
Procedure, shortened: as §1

| Variant | normalized RNA/DNA level with ligand (log10) (hypoxanthine [1]) | normalized RNA/DNA level without ligand (log10) (hypoxanthine [2]) |
| --- | --- | --- |
| GCUGUCACCGGUGUAUUACCCUAGUGGUCGACCGGUCUGAUGAGUCUACCUCGAGACGAAACAGC [ACCUCG] | 1.928 ± 0.017 | 1.62 ± 0.062 |
| GCUGUCACCGGUGUAUUACCCUAGUGGUCGACCGGUCUGAUGAGUCUGCCUCUAGACGAAACAGC [GCCUCU] | 2.011 ± 0.019 | 1.96 ± 0.02 |
| GCUGUCACCGGUGUAUUACCCUAGUGGUCGACCGGUCUGAUGAGUCUUCCUCUAGACGAAACAGC [UCCUCU] | 1.99 ± 0.053 | 1.98 ± 0.029 |
| GCUGUCACCGGUGUAUUACCCUAGUGGUCGACCGGUCUGAUGAGUCUACCUCUAGACGAAACAGC [ACCUCU] | 1.99 ± 0.054 | 1.926 ± 0.01 |
| GCUGUCACCGGUGUAUUACCCUAGUGGUCGACCGGUCUGAUGAGUCUUCCUGAAGACGAAACAGC [UCCUGA] | 1.974 ± 0.017 | 1.77 ± 0.069 |
| GCUGUCACCGGUGUAUUACCCUAGUGGUCGACCGGUCUGAUGAGUCUCCCUGCAGACGAAACAGC [CCCUGC] | 2.04 ± 0.059 | 1.901 ± 0.0066 |
| GCUGUCACCGGUGUAUUACCCUAGUGGUCGACCGGUCUGAUGAGUCUGCCUGCAGACGAAACAGC [GCCUGC] | 1.977 ± 0.012 | 1.86 ± 0.045 |
| GCUGUCACCGGUGUAUUACCCUAGUGGUCGACCGGUCUGAUGAGUCUACCUGCAGACGAAACAGC [ACCUGC] | 1.99 ± 0.051 | 1.912 ± 0.016 |
| GCUGUCACCGGUGUAUUACCCUAGUGGUCGACCGGUCUGAUGAGUCUCCCUGGAGACGAAACAGC [CCCUGG] | 1.91 ± 0.028 | 1.8 ± 0.05 |
| GCUGUCACCGGUGUAUUACCCUAGUGGUCGACCGGUCUGAUGAGUCUGCCUGGAGACGAAACAGC [GCCUGG] | 1.94 ± 0.062 | 1.5 ± 0.017 |
| GCUGUCACCGGUGUAUUACCCUAGUGGUCGACCGGUCUGAUGAGUCUCCCUGUAGACGAAACAGC [CCCUGU] | 1.94 ± 0.078 | 1.94 ± 0.053 |
| GCUGUCACCGGUGUAUUACCCUAGUGGUCGACCGGUCUGAUGAGUCUGCCUGUAGACGAAACAGC [GCCUGU] | 1.93 ± 0.024 | 1.83 ± 0.015 |
| GCUGUCACCGGUGUAUUACCCUAGUGGUCGACCGGUCUGAUGAGUCUUCCUGUAGACGAAACAGC [UCCUGU] | 1.93 ± 0.021 | 1.86 ± 0.043 |
| GCUGUCACCGGUGUAUUACCCUAGUGGUCGACCGGUCUGAUGAGUCUACCUGUAGACGAAACAGC [ACCUGU] | 1.9472 ± 0.00096 | 1.81 ± 0.033 |
| GCUGUCACCGGUGUAUUACCCUAGUGGUCGACCGGUCUGAUGAGUCUUCCUUAAGACGAAACAGC [UCCUUA] | 1.956 ± 0.015 | 1.87 ± 0.069 |
| GCUGUCACCGGUGUAUUACCCUAGUGGUCGACCGGUCUGAUGAGUCUACCUUAAGACGAAACAGC [ACCUUA] | 1.94 ± 0.068 | 1.86 ± 0.03 |
| GCUGUCACCGGUGUAUUACCCUAGUGGUCGACCGGUCUGAUGAGUCUUCCUUCAGACGAAACAGC [UCCUUC] | 1.93 ± 0.046 | 1.89 ± 0.062 |
| GCUGUCACCGGUGUAUUACCCUAGUGGUCGACCGGUCUGAUGAGUCUACCUUCAGACGAAACAGC [ACCUUC] | 1.958 ± 0.018 | 1.96 ± 0.03 |
| GCUGUCACCGGUGUAUUACCCUAGUGGUCGACCGGUCUGAUGAGUCUCCCUUGAGACGAAACAGC [CCCUUG] | 1.984 ± 0.013 | 1.84 ± 0.045 |
| GCUGUCACCGGUGUAUUACCCUAGUGGUCGACCGGUCUGAUGAGUCUUCCUUGAGACGAAACAGC [UCCUUG] | 1.91 ± 0.034 | 1.64 ± 0.022 |
| GCUGUCACCGGUGUAUUACCCUAGUGGUCGACCGGUCUGAUGAGUCUCCCUUUAGACGAAACAGC [CCCUUU] | 2 ± 0.059 | 1.938 ± 0.0021 |

| Variant | normalized RNA/DNA level with ligand (log10) (hypoxanthine [1]) | normalized RNA/DNA level without ligand (log10) (hypoxanthine [2]) |
| --- | --- | --- |
| GCUGUCACCGGUGUAUUACCCUAGUGGUCGACCGGUCUGAUGAGUCUGCCUUUAGACGAAACAGC [GCCUUU] | 1.94 ± 0.041 | 1.92 ± 0.039 |
| GCUGUCACCGGUGUAUUACCCUAGUGGUCGACCGGUCUGAUGAGUCUUCCUUUAGACGAAACAGC [UCCUUU] | 2.01 ± 0.04 | 1.94 ± 0.032 |
| GCUGUCACCGGUGUAUUACCCUAGUGGUCGACCGGUCUGAUGAGUCUACCUUUAGACGAAACAGC [ACCUUU] | 1.97 ± 0.034 | 1.89 ± 0.0069 |
| GCUGUCACCGGUGUAUUACCCUAGUGGUCGACCGGUCUGAUGAGUCUCCGAACAGACGAAACAGC [CCGAAC] | 1.9 ± 0.019 | 1.606 ± 0.0099 |
| GCUGUCACCGGUGUAUUACCCUAGUGGUCGACCGGUCUGAUGAGUCUUCGAACAGACGAAACAGC [UCGAAC] | 1.929 ± 0.011 | 1.734 ± 0.012 |
| GCUGUCACCGGUGUAUUACCCUAGUGGUCGACCGGUCUGAUGAGUCUACGAACAGACGAAACAGC [ACGAAC] | 1.89 ± 0.036 | 1.58 ± 0.017 |
| GCUGUCACCGGUGUAUUACCCUAGUGGUCGACCGGUCUGAUGAGUCUCCGAAUAGACGAAACAGC [CCGAAU] | 1.9 ± 0.083 | 1.66 ± 0.028 |
| GCUGUCACCGGUGUAUUACCCUAGUGGUCGACCGGUCUGAUGAGUCUUCGAAUAGACGAAACAGC [UCGAAU] | 1.87 ± 0.043 | 1.476 ± 0.0078 |
| GCUGUCACCGGUGUAUUACCCUAGUGGUCGACCGGUCUGAUGAGUCUCCGACAAGACGAAACAGC [CCGACA] | 1.978 ± 0.01 | 1.79 ± 0.025 |
| GCUGUCACCGGUGUAUUACCCUAGUGGUCGACCGGUCUGAUGAGUCUUCGACAAGACGAAACAGC [UCGACA] | 1.93 ± 0.023 | 1.72 ± 0.063 |
| GCUGUCACCGGUGUAUUACCCUAGUGGUCGACCGGUCUGAUGAGUCUUCGACCAGACGAAACAGC [UCGACC] | 1.976 ± 0.015 | 1.955 ± 0.011 |
| GCUGUCACCGGUGUAUUACCCUAGUGGUCGACCGGUCUGAUGAGUCUACGACCAGACGAAACAGC [ACGACC] | 1.97 ± 0.051 | 1.85 ± 0.02 |
| GCUGUCACCGGUGUAUUACCCUAGUGGUCGACCGGUCUGAUGAGUCUUCGACGAGACGAAACAGC [UCGACG] | 1.94 ± 0.021 | 1.704 ± 0.007 |
| GCUGUCACCGGUGUAUUACCCUAGUGGUCGACCGGUCUGAUGAGUCUGCGACUAGACGAAACAGC [GCGACU] | 1.92 ± 0.026 | 1.755 ± 0.013 |
| GCUGUCACCGGUGUAUUACCCUAGUGGUCGACCGGUCUGAUGAGUCUUCGACUAGACGAAACAGC [UCGACU] | 1.93 ± 0.056 | 1.72 ± 0.035 |
| GCUGUCACCGGUGUAUUACCCUAGUGGUCGACCGGUCUGAUGAGUCUCCGAGCAGACGAAACAGC [CCGAGC] | 1.899 ± 0.0048 | 1.44 ± 0.037 |
| GCUGUCACCGGUGUAUUACCCUAGUGGUCGACCGGUCUGAUGAGUCUGCGAGCAGACGAAACAGC [GCGAGC] | 1.81 ± 0.034 | 1.37 ± 0.079 |
| GCUGUCACCGGUGUAUUACCCUAGUGGUCGACCGGUCUGAUGAGUCUUCGAGCAGACGAAACAGC [UCGAGC] | 1.97 ± 0.029 | 1.6 ± 0.1 |
| GCUGUCACCGGUGUAUUACCCUAGUGGUCGACCGGUCUGAUGAGUCUUCGAGGAGACGAAACAGC [UCGAGG] | 1.89 ± 0.036 | 1.59 ± 0.056 |
| GCUGUCACCGGUGUAUUACCCUAGUGGUCGACCGGUCUGAUGAGUCUCCGAGUAGACGAAACAGC [CCGAGU] | 1.89 ± 0.03 | 1.57 ± 0.029 |
| GCUGUCACCGGUGUAUUACCCUAGUGGUCGACCGGUCUGAUGAGUCUCCGAUAAGACGAAACAGC [CCGAUA] | 1.92 ± 0.049 | 1.72 ± 0.059 |
